Reference: patent US20170052184A1 (published 2017)

Key:
HCV Core1-169 [1] = biological target: T1, HCV Core1-169 (HCV-1, UniProt P26664 1-169); experiment: EIA, core1-169 coated on plate; further: test concentration or dose not given here
T1 construct: also called recombinant HCV core antigen
T1 sequence: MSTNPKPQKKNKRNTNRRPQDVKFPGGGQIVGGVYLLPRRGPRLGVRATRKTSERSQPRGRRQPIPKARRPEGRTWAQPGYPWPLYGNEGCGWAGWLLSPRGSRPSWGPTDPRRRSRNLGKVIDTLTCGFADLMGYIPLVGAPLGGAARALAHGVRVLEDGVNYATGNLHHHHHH

HCV Core1-169 [2] = biological target: T1, HCV Core1-169; experiment: EIA, core1-169 captured by mAb 14-153-229; further: test concentration or dose not given here
HCV Core1-169 [3] = biological target: T2, HCV Core1-169 (hepatitis C virus (HCV-1), UniProt P26664 1-169); experiment: SPR sandwich, capture mAb C11-14
T2 sequence: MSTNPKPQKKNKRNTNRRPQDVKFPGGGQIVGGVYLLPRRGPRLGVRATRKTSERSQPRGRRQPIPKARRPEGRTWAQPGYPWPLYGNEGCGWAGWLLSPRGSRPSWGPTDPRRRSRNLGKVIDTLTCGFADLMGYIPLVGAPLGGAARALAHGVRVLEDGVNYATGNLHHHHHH

HCV Core1-169 [4] = biological target: T2, HCV Core1-169; experiment: SPR sandwich, capture mAb C11-7
[5] = biological target: T3, HCV Core 134-171-TT Peptide (hepatitis C virus (HCV-1 numbering) …); experiment: SPR, captured mAb, peptide analyte
T3 construct: also called ALRZ-9 peptide

HCV Core1-169 [6] = biological target: T2, HCV Core1-169; experiment: SPR sandwich, capture mAb C11-3
HCV Core1-169 [7] = biological target: T2, HCV Core1-169; experiment: SPR sandwich, capture mAb C11-9

B1: HCV 208A-557 (antibody, V domains shown)
VH: QGQMQQSGAELVKPGASVKLSCKTSGFTFSSSYISWLKQKPGQSLEWIAWIYAGTGNTNYNQKFTDKAQLTVDTSSSTAYMQLSSLTTEDSAIYYCAISGTGFTYWGQGTLVTVSA
VL: DIALTQSPASLAVSLGQRATISCRASQSVSTSRYSYMHWYQQKPGQPPELLIKYASNLESGVPARFSGSGSGTDFTLNIHPVGEEDTATYYCQHSWDFPFTFGSGTKLEIKR
OD (A492) (HCV Core1-169 [1]): 1.4 OD | OD (A492) (HCV Core1-169 [2]): 2.39 OD

B2: HCV 208B-560 (antibody, V domains shown)
VH: EVQLQQSGPELEKPGASVKISCKTSGYTFTEYAMHWVKQSHGMSLEWIGGINPSNGNAIYNQIFKDKATLTVDRSSSTAYMGLRSLTFGDSGVYFCVRRQLDFFDYWGQGASLTVSS
VL: DIVVTQSPASLAVSLGQRATISCRASQSVSTSRYSYLHWYQQKPGQPPKLLIKYASNLESGVPARFSGSGSGTDFTLNIHPVGEEDTATYYCQHSWEFPFTFGSGTKLEIKR
OD (A492) (HCV Core1-169 [1]): 1.07 OD | OD (A492) (HCV Core1-169 [2]): 1.3 OD

B3: HCV 208A-920 (antibody, V domains shown)
VH: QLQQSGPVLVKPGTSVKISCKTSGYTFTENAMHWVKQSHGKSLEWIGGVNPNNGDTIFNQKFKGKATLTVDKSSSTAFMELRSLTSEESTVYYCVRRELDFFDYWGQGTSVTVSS
VL: DIVLTQSPASLAVSLGQRATISCRASQSVSTSRYSYMHWYQQKPGQPPKLLIKYASNLESGVPARFSGSGSGTDFTLNIHPVAEEDTAAYYCQHSWEFPFTFGSGTKLEIKR
OD (A492) (HCV Core1-169 [1]): 1.14 OD | OD (A492) (HCV Core1-169 [2]): 1.82 OD

B4: HCV 208A-134 (antibody, V domains shown)
VH: QGQMQQSGAELAKPGASVKLSCKTSGFTFSSSYISWLKQKPGQSLEWIAWIYAGTGNTNYNQKFTDKAQLTVDTSSSTAYMQLSSLTTEDSAIYYCAISGTGFTYWGQGTLVTVSA
VL: EVLMTQSPLSLPVSLGDQASISCRSSQSLEHTNGNTYLEWFLQRPGQPPKLLIYKVSSRFSGVPDRFSGSGSGTDFTLKISRVEAEDLGVYYCFQGSHVPFTFGSGTKLAIKR
OD (A492) (HCV Core1-169 [1]): 0.1 OD | OD (A492) (HCV Core1-169 [2]): 0.13 OD

B5: HCV 208A-605 (antibody, V domains shown)
VH: EVQLQQSGPELEKPGASVKISCKTSGYTFTEYAIHWVKQSHGMSLEWIGGINPSNGNAIYNQIFKDKATLTVDRSSSTAYMGLRSLTFGDSGVYFCVRRQLDFFDYWGQGASLTVSS
VL: DIVVTQSPASLAVSLGQRATISCRASQSVSTSRYSYLHWYQQKPGQPPKLLIKYASNLESGVPARFSGSGSGTDFTLNIHPVGEEDTATYYCQHSWEFPFTFGSGTKLEIKR
OD (A492) (HCV Core1-169 [1]): 0.55 OD | OD (A492) (HCV Core1-169 [2]): 2.21 OD

B6: HCV 208A-133 (antibody, V domains shown)
VH: QLQQSGPVLVGPGASVMISCKTSGYTFTENAMHWVEQSHGKSLEWIGGVNPNNGDTIFNQKFKGKATLTVDKSSSTAFMEFRSLTSEESTVYYCVRRELDFFDYWGQGTSVTVSS
VL: DIVLTQSPASLAVSLGQRATISCRASQSVSTSRYSYMHWYQQKPGQPPKLLIKYASNLESGVPARFSGSGSGTDFTLNIHPVAEEDTATYYCQHSWEFPFTFGSGTKLEIKR
OD (A492) (HCV Core1-169 [1]): 1.73 OD | OD (A492) (HCV Core1-169 [2]): 1.46 OD

B7: HCV 208A-222 (antibody, V domains shown)
VH: EVQLQQSGPELEKPGASVRISCKTSGYTFTEYAMHWVKQSHGKSLEWIGGINPNNGNAIYNQIFKDKATLTVDRSSSTAYMGLRSLTFGDSGVYFCVRRQLDYFDYWGQGASLTVSS
VL: DIVVTQSPASLAVSLGQRATISCRASQSVSTSRYSYLHWYQQKPGQPPKLLIKYASNLESGVPARFSGSGSGTDFTLNIHPVGEEDTATYYCQHSWEFPFTFGSGTKLEIKR
OD (A492) (HCV Core1-169 [1]): 1.06 OD | OD (A492) (HCV Core1-169 [2]): 2.07 OD

B8: HCV 208A-110 (antibody, V domains shown)
VH: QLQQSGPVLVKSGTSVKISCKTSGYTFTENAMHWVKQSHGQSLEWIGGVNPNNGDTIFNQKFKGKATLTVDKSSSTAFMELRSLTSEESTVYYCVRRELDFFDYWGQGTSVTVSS
VL: DIVLTQSPASLAVSLGQRATISCRASQSVSTSRYSYMHWYQQKPGQPPKLLIKYASNLESGVPARFSGSGSGTDFTLNIHPVAEEDTAAYYCQHSWEFPFTFGSGTKLEIKR
OD (A492) (HCV Core1-169 [1]): 1.6 OD | OD (A492) (HCV Core1-169 [2]): 1.87 OD

B9: HCV 208A-692 (antibody, V domains shown)
VH: QGQMQQSGAELAKPGASVKLSCKTSGFTFSSSYISWLKQKPGQSLEWIAWIFAGTGNTNYNQKFTDKAQLTVDTSSSTAYMQLSSLTTEDSAIYYCAISGTGFTYWGQGTLVTVSA
VL: EVLMTQSPLSLPVSLGDQASISCRSSQSLEHSNGNTYLEWFLQRPGQPPKLLIYKVSSRFSGVPDRFSGSGSGTDFTLKISRVEAEDLGVYYCFQGSHVPFTFGSGTKLAIKR
OD (A492) (HCV Core1-169 [1]): 0.07 OD | OD (A492) (HCV Core1-169 [2]): 0.57 OD

B10: HCV 208A-159 (antibody, V domains shown)
VH: QLQQSGPAQVKPGASVMISCKTSGYTFTENAMHWVKQSHGKSLEWIGGVNPNNGDTIFNQKFKDKAALTVDKSSSTAFMELRSLTSEESTVYYCVRRELDFFDYWGQGTSVTVSS
VL: DIVLTQSPASLAVSLGQRATISCRASQSVSTSRYSYVHWYQQKPGQPPKLLIKYAANLESGVPARFSGSGSGTDFTLNIHPVAEEDAAAYYCQHSWEFPFTFGSGTKLEIKR
OD (A492) (HCV Core1-169 [1]): 0.57 OD | OD (A492) (HCV Core1-169 [2]): 1.29 OD

B11: HCV 208A-741 (antibody, V domains shown)
VH: QLQQSGPVLVKPGASVMISCKTSGYTFTENAMHWVKQSHGKSLEWIGGVNPNNGDTIFNQKFKGKATLTVDKSSSTAFMELRSLTSEESTVYYCVRRELDFFDYWGQGTSVTVSS
VL: DIVLTQSPASLAVSLGQRTTISCGASQSVSTSRFSYMHWYQQKPGQPPKLLIKYASNLESGVPARFSGSGSGTDFTLNIHPVAEEDTAAYYCQHSWEFPFTFGSGTKLEIKR
OD (A492) (HCV Core1-169 [1]): 1.2 OD | OD (A492) (HCV Core1-169 [2]): 1.9 OD

B12: HCV 208A-126 (antibody, V domains shown)
VH: QLQQSGPVLVKPGASVMISCKTSGYTFTENAMHWVKQSHGKSLEWIGGVNPNNGDTIFNQKFKGKATLTVDKSSNTAFTELRSLPSEESTVYYCVRRGLDFFDYWGQGTSVTVSS
VL: DIVLTQSPASLAVSLGQRATISCRASQSVSTSRYSYMHWYQQKPGQPPKLLIKYASNLESGVPARFSGSGSGTDFTLNIHPVAEEDTAAYYCQHSWEFPFTFGSGTKLEIKR
OD (A492) (HCV Core1-169 [1]): 0.69 OD | OD (A492) (HCV Core1-169 [2]): 1.2 OD

B13: HCV 208A-334 (antibody, V domains shown)
VH: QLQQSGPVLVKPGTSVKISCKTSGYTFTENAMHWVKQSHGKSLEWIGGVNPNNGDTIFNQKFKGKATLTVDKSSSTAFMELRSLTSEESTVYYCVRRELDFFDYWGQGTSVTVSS
VL: DIVLTQSPASLAVSLGQRATISCRASQSVSTSRYSYMHWYQQKPGQPPKLLIKYASNLESGVPARFSGSGSGTDFTLNIHPVAEEDTAAYYCQHSWGFPFTFGSGTKLEIKR
OD (A492) (HCV Core1-169 [1]): 1.28 OD | OD (A492) (HCV Core1-169 [2]): 1.9 OD

B14: HCV 208B-251 (antibody, V domains shown)
VH: QLQQSGPVLVKPGASVKISCKTSGYTFTENAMHWVKQSHGKSLEWIGGVNPNNGDTIYNQKFKGKATLTVDKSSSTAFMELRSLTSEESPVYFCVRRELDFFDYWGQGTSVTVSS
VL: DIVLTQSPASLAVSLGKKATISCRASQSVSTSRYSYMHWYQQKPGHPPKLLIKYASNLESGVPARFSGSGSGTDFTLNIHPVAEEDTAAYYCQHSWEFPFTFGSGTKLEIKR
OD (A492) (HCV Core1-169 [1]): 0.79 OD | OD (A492) (HCV Core1-169 [2]): 1.39 OD

B15: HCV 208A-442 (antibody, V domains shown)
VH: DVQLQESGPGLVNPSQSLSLTCSVTGYSITSGYYWIWIRQFPGNKLEWMGYIKYDGGNNYSPSLKNRISIARDTSKNQFFLKLNSVTIEDTATYYCTRGSDSFDYWGQGTTLTVSS
VL: DIVLTQSPASLAVSLGQRAIISCKASQSVSFAGTNLMHWYQQKPGQQPKLLIYRASNLETGVPTRFSGSGSRTDFTLNIHPVEEDDAATYYCQQSREYYTFGGGTKLEIKR
OD (A492) (HCV Core1-169 [1]): 1.61 OD | OD (A492) (HCV Core1-169 [2]): 0.36 OD

B16: HCV 208A-638 (antibody, V domains shown)
VH: QGQLQQPGAEFVKPGASLKLSCRASGYTFTSYWIHWVKQRPGQGLEWIGEVDPSDSYINQNEKFRGKATLTVDKSSSTAYMQLGSLTSEDSAVYYCARHYYGVLDSWGQGTALTVSS
VL: QIVLTQSPTIMSASLGERVTMTCTASSSVSSSYLHWFQQKPGSSPKLWIYSTSNLASGVPPRFSGSGSGTSYSLSISSVEAEDVATYYCLQFHRSPWTFGGGAKLEIKR
OD (A492) (HCV Core1-169 [1]): 1.07 OD | OD (A492) (HCV Core1-169 [2]): 2.24 OD

B17: HCV 208B-672 (antibody, V domains shown)
VH: EVKLVESGGSLVQPGGSLKLSCAASGFNFNTYAMSWVRQTPEKRLEWVAYISNGGGNTYYVDTVKGRFTISRDNAKNTLYLRMSSLKSEDTAMYYCARHGLYWGYSMDYWGQGTSVTVSS
VL: DIQMTQSPSSLSASLGERVSLTCRASQDIGGSINWLQQEPDGTIKRLIYATSSLDSGVPKRFSGSRSGSDYSLTISSLESEDFVDYYCLQYASSPPTFGGGTKLEIKR
expected percent binding (HCV Core1-169 [3]): 2.7% | expected percent binding (HCV Core1-169 [4]): 2.8% | Kd [5]: 0.16 nM | koff [5]: 0.00034 s⁻¹ | kon [5]: 2.2e+06 M⁻¹ s⁻¹ | expected percent binding (HCV Core1-169 [6]): 2.6% | expected percent binding (HCV Core1-169 [7]): ≤ 1%

B18: HCV 208B-612 (antibody, V domains shown)
VH: EVQLQQSGPELVKPGASVKMSCKASGYRFTSYVMHWVRQKPGQGLEWIGYIDPHNDDTKYSEKFRGKATLTSDKSSTTAYMELSSLTSEDSAVYYCVRYSYDRDYSPMDYWGQGTSVTVSS
VL: QIVLTQSPTLMSASPGEKVTMTCSASSTVTYIYWYQQKPGSSPRLWMYDTFNLVSGVPARFSGSRSGTSYFLTISSMEGEDAATYYCQQYSDSPYTFGGGTKLEIKR
expected percent binding (HCV Core1-169 [3]): 3.1% | expected percent binding (HCV Core1-169 [4]): 4.4% | Kd [5]: 0.35 nM | koff [5]: 6.5e-05 s⁻¹ | kon [5]: 180000 M⁻¹ s⁻¹ | expected percent binding (HCV Core1-169 [6]): 3.8% | expected percent binding (HCV Core1-169 [7]): ≤ 1%
